Test results: patent publication US20240408202A1 (HEALTH RESEARCH, published 2024)

Legend:
human CD3ε [1] = target: T1, human CD3ε (human, UniProt P07766 23-207); assay: flow cytometry on human T cells, anti-His tag detection
T1 construct: whole, on cells; The assay stained human T cells; also called hCD3e; CD3e
Description: (§1) The DNA sequence corresponding to the G(EAAAK)3 (SEQ ID NO:9) linker ([…] (SEQ ID NO:8), followed by Mov19 scFv, 6× His Tag, Furin cleavage peptide, SGSG linker+P2A translational skipping sequence, and monomeric enhanced GFP (eGFP) reporter (to monitor transduction efficiency) was PCR amplified from an existing plasmid to generate overlapping DNA fragments amenable to assembly using NEBuilder (FIG. 7A). FR—B and FR-Bh sequences along with GFP reporter genes were inserted into the previously described retroviral vector¹ using NotI and PacI restriction sites, with DNA fragments assembled using NEBuilder HIFI DNA assembly (New England Biolabs). Plasmid sequences were confirmed by Sanger Sequencing, and retroviruses used to transduce human or mouse cells produced in PG13 or PLAT-E retroviral packaging cells lines, respectively. For murine studies, control T cells were either transduced with a retrovirus expressing a codon-optimized Luciferase (Luc2)-P2A-GFP gene and produced in PLAT-E cells or were Mock transduced. […] In all cases, cell culture supernatant from high-titer retrovirus producing clones was collected and used for viral transduction. For initial testing of BiTEs for antigen-specific binding, 293T cells were retrovirally transduced, followed by collection of 293T cell culture supernatants. […]

mouse CD3ε [2] = target: T2, mouse CD3ε (mouse, UniProt P22646 22-189); assay: flow cytometry, BiTE supernatant on mouse T cells, anti-His tag detection
T2 construct: whole, on cells; The assay stained mouse T cells; also called mCD3e
T2 sequence (P22646 22-189): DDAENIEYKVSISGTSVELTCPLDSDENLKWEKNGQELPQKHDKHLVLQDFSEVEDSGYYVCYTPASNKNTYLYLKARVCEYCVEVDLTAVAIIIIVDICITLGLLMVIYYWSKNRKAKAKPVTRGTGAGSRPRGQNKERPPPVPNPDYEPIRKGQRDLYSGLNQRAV
Description: as §1

[3] = target: T3, human Folate Receptor alpha (FRα) (human, UniProt P15328 25-234); assay: flow cytometry, BiTE supernatant on IE9-mp1-hFRa cells, anti-His tag detection
T3 construct: whole, on cells; also called hFRα; hFRa
T3 sequence (P15328 25-234): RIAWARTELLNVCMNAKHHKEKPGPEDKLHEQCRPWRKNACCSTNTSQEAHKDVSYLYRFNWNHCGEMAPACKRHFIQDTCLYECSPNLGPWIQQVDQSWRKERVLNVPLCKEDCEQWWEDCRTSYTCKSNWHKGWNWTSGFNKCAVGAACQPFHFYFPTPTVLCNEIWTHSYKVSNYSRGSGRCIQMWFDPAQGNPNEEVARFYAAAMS
Description: as §1

[4] = target: T3, human Folate Receptor alpha (FRα); assay: flow cytometry, BiTE supernatant on FRα+ cancer cells, anti-His tag detection
Description: as §1

human CD3ε [5] = target: T1, human CD3ε; assay: flow cytometry, BiTE supernatant on human T cells, anti-His tag detection
Description: as §1

mouse CD3ε [6] = target: T2, mouse CD3ε; assay: flow cytometry on mouse CD8+ T cells, anti-His tag detection; staining control
Description: as §1

T1 sequence (P07766 23-207): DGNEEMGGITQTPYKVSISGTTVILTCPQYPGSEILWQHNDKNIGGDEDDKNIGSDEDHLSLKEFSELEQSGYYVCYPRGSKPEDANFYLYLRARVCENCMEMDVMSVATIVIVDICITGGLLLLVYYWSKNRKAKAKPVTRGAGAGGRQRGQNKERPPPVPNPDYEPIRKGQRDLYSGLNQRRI

B1: FR-B, mouse FRα targeted BiTE (mCD3e scFv 145-2C11 x hFRα scFv MOv19), chimeric BiTE (bispecific antibody)
chain: GEVQLVESGGGLVQPGKSLKLSCEASGFTFSGYGMHWVRQAPGRGLESVAYITSSSINIKYADAVKGRFTVSRDNAKNLLFLQMNILKSEDTAMYYCARFDWDKNYWGQGTMVTVSSGGGGSGGGGSGGGGSDIQMTQSPSSLPASLGDRVTINCQASQDISNYLNWYQQKPGKAPKLLIYYTNKLADGVPSRFSGSGSGRDSSFTISSLESEDIGSYYCQQYYNYPWTFGPGTKLEIKGEAAAKEAAAKEAAAKDIELTQSPASLAVSLGQRAIISCKASQSVSFAGTSLMHWYHQKPGQQPKLLIYRASNLEAGVPTRFSGSGSKTDFTLNIHPVEEEDAATYYCQQSREYPYTFGGGTKLEIKGSTSGSGKSSEGKGQVQLQQSGAELVKPGASVKISCKASGYSFTGYFMNWVKQSHGKSLEWIGRIHPYDGDTFYNQNFKDKATLTVDKSSNTAHMELLSLTSEDFAVYYCTRYDGSRAMDYWGQGTTVTVSSGSGHHHHHH
notes: also called CONT-ENG; Cont-ENG
- binding result (human CD3ε [1]): no binding
- binding result (mouse CD3ε [2]): binds
- binding result [3]: binds

B2: FR-Bh, human FRα targeted BiTE (hCD3e scFv UCHT1 x hFRα scFv MOv19) (bispecific antibody)
chain: GMDIQMTQTTSSLSASLGDRVTISCRASQDIRNYLNWYQQKPDGTVKLLIYYTSRLHSGVPSKFSGSGSGTDYSLTISNLEQEDIATYFCQQGNTLPWTFAGGTKLEIKGGGGSGGGGSGGGGSGGGGSEVQLQQSGPELVKPGASMKISCKASGYSFTGYTMNWVKQSHGKNLEWMGLINPYKGVSTYNQKFKDKATLTVDKSSSTAYMELLSLTSEDSAVYYCARSGYYGDSDWYFDVWGQGTTLTVFSGEAAAKEAAAKEAAAKDIELTQSPASLAVSLGQRAIISCKASQSVSFAGTSLMHWYHQKPGQQPKLLIYRASNLEAGVPTRFSGSGSKTDFTLNIHPVEEEDAATYYCQQSREYPYTFGGGTKLEIKGSTSGSGKSSEGKGQVQLQQSGAELVKPGASVKISCKASGYSFTGYFMNWVKQSHGKSLEWIGRIHPYDGDTFYNQNFKDKATLTVDKSSNTAHMELLSLTSEDFAVYYCTRYDGSRAMDYWGQGTTVTVSSGSGHHHHHH
notes: also called FRα-specific BiTE
- binding result [4]: binds
- binding result (human CD3ε [5]): binds
- binding result (mouse CD3ε [6]): no binding
